Experimental data reported in PMC3034019.

Target: Oregon-Green-labelled actin monomers (OG-actin) (UniProt P68135)
Test: stopped-flow fluorescence kinetics

kon: 1.2e+07 to 1.8e+07 M⁻¹ s⁻¹
Substance: EVH2 domain of human VASP (hEVH2) (domain or fragment)
